Test results published in US20080108569A1, “Compositions and Methods for Treating Diseases Associated With Phlpp” (The Regents of the University of California, priority 2005, published 2008).

Biological target: endogenous Akt (UniProt P31749)
Assay: cell-based or functional assay

Sequence of endogenous Akt (P31749 whole entry): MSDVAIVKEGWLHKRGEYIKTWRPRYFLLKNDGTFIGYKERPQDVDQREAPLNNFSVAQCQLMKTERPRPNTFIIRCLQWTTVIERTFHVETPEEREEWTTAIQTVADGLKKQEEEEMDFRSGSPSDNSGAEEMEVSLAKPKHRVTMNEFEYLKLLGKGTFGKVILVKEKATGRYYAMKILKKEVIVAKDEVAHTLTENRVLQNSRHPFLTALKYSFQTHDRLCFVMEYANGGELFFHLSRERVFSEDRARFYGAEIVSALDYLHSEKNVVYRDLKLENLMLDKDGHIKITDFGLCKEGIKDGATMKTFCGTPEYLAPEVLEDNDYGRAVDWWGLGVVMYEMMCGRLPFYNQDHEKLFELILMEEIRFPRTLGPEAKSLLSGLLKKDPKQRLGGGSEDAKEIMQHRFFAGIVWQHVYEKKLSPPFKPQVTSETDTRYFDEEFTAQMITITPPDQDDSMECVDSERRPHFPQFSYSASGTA

increase in Ser473 phosphorylation on siRNA knock down of PHLPP2 in H157 cells	increase in Akt phosphorylation at Ser 473 on siRNA knock down of PHLPP2 in 293T cells	Substance
4 fold	–	endogenous PHLPP2 (from UniProt Q6ZVD8 1-1323) (enzyme)
–	2 fold	endogenous PHLPP2 (from UniProt Q6ZVD8 1-1323)
